Ends that are not written are not given here.
Legend:
Assay in all cases: GST pull-down, 35S-labeled in vitro translated probe, autoradiography
[1] = molecular target: T1, C/EBPβ bZIP domain, in vitro translated radiolabeled probe (UniProt P17676 269-345, labeled with 35S methionine)
T1 construct: range 269-345; Residues 269-345 are stated for the bZIP expression vector in pcDNA3.1; also called bZIP region of NFIL6

[2] = molecular target: T2, Spi-1 ETS domain, in vitro translated radiolabeled probe (UniProt P17947 170-253)
T2 construct: domain: ETS domain; also called PU.1 ETS domain

[3] = molecular target: T3, Cytomegalovirus (CMV) Immediate Early 2 protein (IE2), in vitro translated radiolabeled probe (human Cytomegalovirus (hCMV), UniProt P19893 1-580, labeled with 35S methionine)
T3 sequence: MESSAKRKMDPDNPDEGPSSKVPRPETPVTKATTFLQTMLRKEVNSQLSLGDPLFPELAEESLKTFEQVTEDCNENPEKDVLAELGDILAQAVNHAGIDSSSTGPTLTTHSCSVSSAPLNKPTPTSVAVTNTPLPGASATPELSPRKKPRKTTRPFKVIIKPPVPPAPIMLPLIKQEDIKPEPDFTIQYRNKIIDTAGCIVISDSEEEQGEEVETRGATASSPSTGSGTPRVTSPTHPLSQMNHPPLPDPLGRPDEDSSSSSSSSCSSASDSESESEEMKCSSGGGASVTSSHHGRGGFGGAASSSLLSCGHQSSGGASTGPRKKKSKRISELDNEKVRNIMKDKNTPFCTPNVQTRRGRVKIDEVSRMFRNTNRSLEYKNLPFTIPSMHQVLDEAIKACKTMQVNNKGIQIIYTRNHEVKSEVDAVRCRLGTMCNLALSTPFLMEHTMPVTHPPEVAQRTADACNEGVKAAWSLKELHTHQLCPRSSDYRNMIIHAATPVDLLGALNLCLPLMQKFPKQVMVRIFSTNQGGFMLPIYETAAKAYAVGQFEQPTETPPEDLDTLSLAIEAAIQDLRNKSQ

Measured: binding result

T1 sequence (P17676 269-345 limits assumed): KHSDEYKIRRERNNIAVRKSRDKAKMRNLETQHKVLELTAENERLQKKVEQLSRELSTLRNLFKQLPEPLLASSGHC

B1: GST fusion of IE2 291-364 fragment with an internal deletion of residues 315-328 (delA) (other)
chain: SSHHGRGGFGGAASSSLLSCGHQSRISELDNEKVRNIMKDKNTPFCTPNVQTRRGRVKID
modifications: cysteine pairing not given here; also: GST fusion, linker and position not given here
notes: also called IE2 291-364Δ315-328; not shown: glutathione-S-transferase (GST) fusion partner
no binding: [1] | [2] | [3]

Source: patent US20070265201A1 (published 2007)
